Experimental data reported in patent US20170088617A1 (Boehringer Ingelheim, published 2017).

B1: 280-03-08 (antibody, human IgG1, kappa, V domains shown)
VH: QVQLVQSGAEVKKPGSSVKVSCKASGGTFSDYAISWVRQAPGQGLEWMGRIIPILGVANYAQKFQGRVTITADKSTRTAYMELSSLRSEDTAVYYCARNWADAFDIWGQGTMVTVSS
VL: DIQLTQSPSSLSASVGDRVTITCRASQGISSVLAWYQQKPGKAPKLLIYDASSLESGVPSRFSGSGSGTDFTLTISSLQPEDFATYYCQQFNSSITFGQGTKLEIKR
notes: Fully human monoclonal antibody; also called No 1; Clone ID# 280-03-08
B2: 280-21-09 (antibody, human IgG1, kappa, V domains shown)
VH: QVQLVQSGAEVKKPGSSVKVSCKASGDTFSSYAISWVRQAPGQGLEWMGRIIPIINIASYAQNFQGRVTITADKSTNTAYMELSSLRSEDTAVYYCARNWADAFDIWGQGTMVTVSS
VL: DIQLTQSPSSLSASVGDRVTITCRASQGISSALAWYQQKPGKAPKLLIYDASSLESGVPSRFSGSGSGTDFTLTISSLQPEDFATYYCQQFNSSITFGQGTKLEIKR
notes: Fully human monoclonal antibody; also called No 2; Clone ID# 280-21-09
B3: 280-29-12 (antibody, human IgG1, kappa, V domains shown)
VH: QVQLVQSGTEVKKPGSSVKVSCKVSGDTFSSYAISWVRQAPGQGLEWMGRIIPIIGIANYAQKFQGRVTITADKSTSTAYMELSSLRSEDTAVYYCARHWLDAFDIWGQGTMVTVSS
VL: DIQLTQSPSSLSASVGDRVTITCRASQGISSALAWSQQKPGKAPKLLIYDASSLESGVPSRFSGSGSGTDFTLTISSLQPEDFATYYCQQFNSSITFGQGTKLEIKR
notes: Fully human monoclonal antibody; also called No 3; Clone ID# 280-29-12
B4: 280-31-01 (antibody, human IgG1, kappa, V domains shown)
VH: QVQLVQSGAEVKKPGSSVKVSCKASGGTFSDYAISWVRQAPGQGLEWMGRIIPILGVADYAQKFQGRVTITADKSTRTAYMELSSLRSEDTAVYYCARNWADAFDIWGQGTMVTVSS
VL: DIQLTQSPSSLSASVGDRVTITCRASQGISSVLAWYQQKPGKAPKLLIYDASSLESGVPSRFSGSGSGTDFTLTISSLQPEDFATYYCQQFNSSITFGQGTKLEIKR
notes: Fully human monoclonal antibody; also called No 4; Clone ID# 280-31-01
B5: 280-31-01(mut) (antibody, human IgG1, kappa, V domains shown)
VH: QVQLVQSGAEVKKPGSSVKVSCKASGGTFSDYAISWVRQAPGQGLEWMGRIIPILGVADYAQKFQGRVTITADKSTRTAYMELSSLRSEDTAVYYCARNWADAFDIWGQGTMVTVSS
VL: DIQLTQSPSSLSASVGDRVTITCRASQGISSVLAWYQQKPGKAPKLLIYDASSLESGVPSRFSGSGSGTDFTLTISSLQPEDFATYYCQQFDSSITFGQGTKLEIKR
notes: Fully human monoclonal antibody; also called No 5
B6: 280-34-02 (antibody, human IgG1, kappa, V domains shown)
VH: QVELVQSGAEVQKPGSSVKVSCKASGDTFSSYAISWVRQAPGQGLEWMGRIIPIVGIVNYAEKFQGRVTITADKSMSTAYMELSSLRSEDTAVYYCARNWADAFDIWGQGTMVTVSS
VL: DIQLTQSPSSLSASVGDRVTITCRASQGISSALAWYQQKPGKAPKLLIYDASRLESGVPSRFSGSGSGTDFTLTISSLQPEDFTTYYCQQFNSSYTFGQGTKLEIKR
notes: Fully human monoclonal antibody; also called No 6; Clone ID# 280-34-02
B7: 280-50-01 (antibody, human IgG1, kappa, V domains shown)
VH: QVQLVQSGAEVKKPGSSVKVACKASGDTFSSYAISWVRQAPGQGLEWMGRVIPIIGIASYAQNFQGRVTITADRSTSTAYMALSSLRSEDTAVYYCARNWADAFDIWGQGTMVTVSS
VL: DIQLTQSPSSLSASVGDRVTITCRASQGISSVLAWYQQKPGKAPKLLIYAASSLESGVPSRFSGSGSGTDFTLTISSLQPEDFATYYCQQFNSSITFGQGTKVEIKR
notes: Fully human monoclonal antibody; also called No 7; Clone ID# 280-50-01
B8: 280-50-01(mut) (antibody, human IgG1, kappa, V domains shown)
VH: QVQLVQSGAEVKKPGSSVKVACKASGDTFSSYAISWVRQAPGQGLEWMGRVIPIIGIASYAQNFQGRVTITADRSTSTAYMALSSLRSEDTAVYYCARNWADAFDIWGQGTMVTVSS
VL: DIQLTQSPSSLSASVGDRVTITCRASQGISSVLAWYQQKPGKAPKLLIYAASSLESGVPSRFSGSGSGTDFTLTISSLQPEDFATYYCQQFDSSITFGQGTKVEIKR
notes: Fully human monoclonal antibody; also called No 8
B9: 280-61-07 (antibody, human IgG1, kappa, V domains shown)
VH: QVQLVQSGAEVKKPGSSVKVACKASGDTFSSYAISWVRQAPGQGLEWMGRVIPIIGIASYAQNFEGRVTITADRSTSTAYMALSSLRSEDTAVYYCARNWADAFDIWGQGTMVTVSS
VL: DIQLTQSPSSLSASVGDRVTITCRASQGISSVLAWYQQKPGKAPKLLIYAASSLESGVPSRFSGSGSGTDFTLTISSLQPEDFATYYCQQFNSSITFGQGTKLEIKR
notes: Fully human monoclonal antibody; also called No 9; Clone ID# 280-61-07
B10: 283-07-03 (antibody, human IgG1, kappa, V domains shown)
VH: QVELVQSGAEVKKPGSSVKVSCKASGGTFSSYAISWVRQAPGQGLEWMGRIIPILGMANYAQKFQGRVTITADKSTYTAYMELSSLRSEDTAVYYCAREGGVDWYFDLWGRGTLVTVSS
VL: DIQLTQSPSSLSASVGDRVTITCRASQGISSALAWYQQKPGKAPKFMIYDASSLESGVPSRFSGSGSGTDFTLTISSLQPEDFATYYCQQFNSSITFGQGTKLEIKR
notes: Fully human monoclonal antibody; also called No 12; Clone ID# 283-07-03
B11: 283-03-03 (antibody, human IgG1, kappa, V domains shown)
VH: QVELVQSGAEVKKPGSSVKVSCKASGGTFSSYAISWVRQAPGQGLEWMGRIIPILDMANYAQKFQGRVTITADKSTYTAYMELSSLRSEDTAVYYCAREGGVDWYFDLWGRGTLVTVSS
VL: DIQLTQSPSSLSASVGDRVTITCRASQGISSALAWYQQKPGKAPKFMIYDASSLESGVPSRFSGSGSGTDFTLTISSLQPEDFATYYCQQFNSSITFGQGTKLEIKR
notes: Fully human monoclonal antibody; also called No 10; Clone ID# 283-03-03
B12: 283-05-01 (antibody, human IgG1, kappa, V domains shown)
VH: QVELVQSGAEVKKPGSSVKVSCKASEDTFSSYAISWVRQAPGQGLEWMGRIIPIIGIVNYAQKFQGRVTITADKSTYTAYMELSSLRSEDTAVYYCAREGGVDWYFDLWGRGTLVTVSS
VL: DIQLTQSPSSLSASVGDRVTITCRASQGISSALAWYQQKPGKAPKFMIYDASSLESGVPSRFSGSGSGTDFTLTISSLQPEDFATYYCQQFNSSITFGQGTKLEIKR
notes: Fully human monoclonal antibody; also called No 11; Clone ID# 283-05-01
B13: 283-11-03 (antibody, human IgG1, kappa, V domains shown)
VH: QVQLVQSGAEVKKPGSSMKVSCKASEDTFSSYAISWVRQAPGQGLEWMGRIIPIIGIVNYAQKFQGRVTITADKSTCTAYMELTSLRSEDTAVYYCAREGGVDWYFDLWGRGTLVTVSS
VL: DIQLTQSPSSLSASVGDRVTITCRASQGISSALAWYQQKPGKAPKFMIYDASSLESGVPSRFSGSGSGTDFTLTISSLQPEDFATYYCQQFNSSITFGQGTKLEIKR
notes: Fully human monoclonal antibody; also called No 13; Clone ID# 283-11-03
B14: 283-14-01 (antibody, human IgG1, kappa, V domains shown)
VH: QVQLVQSGAEVKKPGSSVKVSCKASGGTFSSYAISWVRQAPGQGLEWMGRIIPILGIANYAQKFQGRVTITADKSTYTAYMELSSLRSEDTAVYYCAREGGVDWYFDLWGRGTLVTVSS
VL: DIQLTQSPSSLSASVGDRVTITCRASQGISSALAWYQQKPGKAPKFMIYDASSLESGVPSRFSGSGSGTDFTLTISSLQPEDFATYYCQQFNSSITFGQGTKLEIKR
notes: Fully human monoclonal antibody; also called No 14; Clone ID# 283-14-01

Key:
[1] = molecular target: T1, cynomolgus CD33 on the recombinant HEK293-cynomolgusCD33 cell line (cynomolgus, UniProt A0A7N9ICR5 17-359); assay: FACS Scatchard analysis on HEK293-cynomolgusCD33 cells
T1 construct: whole, on cells
Experimental: (§1) Fourteen CD33 binding agents (fully human monoclonal antibodies as listed in table 1 as No. 1-14, respectively) to human and cynomolgus CD33 were determined by FACS Scatchard analysis as described in Brockhoff et al., (Cytometry. 1994 Sep. 1; 17(1):75-83) on CD33 expressing cells (AML-derived HL60 cell line, recombinant HEK293-cynomolgusCD33 cell line). Briefly, dilutions of a CD33 binding agent were prepared in a 96 well plate starting with 100-400 nM in the first well (80 pil), followed by 11 dilution steps (1:2, 40+40 μl). 50 μl of CD33 binding agent dilutions are added to FACS tubes, 150 μl cells (0.8×10⁶/ml=1.2×10⁵ cells/tube) are added to each FACS tube. Cells were gently mixed and incubated for 1 h on ice. Thereafter 50 μl FITC conjugated secondary antibody (concentration 15 μg/ml; mouse mAb anti-human IgG) was added, mixed, and incubated for 30 min. on ice. 4 ml PBS ph7.2 containing 0.02% […] were added thereafter, cells were pelleted and resuspended in 300 μl PBS pH 7.2 and subjected to FACS analysis using a BD FACS Canto. All experimental steps were performed on wet ice, all CD33 binding agent dilutions were made in PBS/0.5% BSA+0.02% acid. FACS calibration was performed using Quantum FITC MESF (Premix) Beads (Bangs Laboratories). All samples were measured using the same FACS parameters. […] A regression line was drawn through the resulting data points, the slope of this line corresponds to the negative value of the association constant.

[2] = molecular target: T2, human CD33 on the AML-derived HL60 cell line (human, UniProt P20138 18-364); assay: FACS Scatchard analysis on HL60 cells
T2 construct: whole, on cells; also called CD33 expressing HL60 cell line
Experimental: as §1

T2 sequence (P20138 18-364): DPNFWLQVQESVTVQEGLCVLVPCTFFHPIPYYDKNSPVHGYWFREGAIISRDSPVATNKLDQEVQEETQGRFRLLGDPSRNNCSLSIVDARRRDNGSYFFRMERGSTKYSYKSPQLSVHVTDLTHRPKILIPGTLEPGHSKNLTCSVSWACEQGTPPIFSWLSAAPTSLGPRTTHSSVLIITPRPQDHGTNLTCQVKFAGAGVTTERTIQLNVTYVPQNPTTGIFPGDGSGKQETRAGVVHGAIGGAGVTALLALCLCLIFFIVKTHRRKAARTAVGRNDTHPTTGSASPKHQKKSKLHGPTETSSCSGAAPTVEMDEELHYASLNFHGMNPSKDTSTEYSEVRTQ

Binder | Kd [1] [nM] | Kd [2] [nM]
B1 | 0.03 | 0.3
B2 | 0.3 | –
B3 | 0.6 | –
B4 | 0.3 | –
B5 | 0.5 | –
B6 | 0.5 | 0.3
B7 | 0.5 | 0.3
B8 | 1.7 | 0.4
B9 | 0.4 | 0.3
B10 | 2.1 | 0.3
B11 | 1.9 | –
B12 | 1.1 | –
B13 | 0.6 | –
B14 | 2.3 | –
